From the supplement of paper PMC11316812
± gives the standard deviation of the averaged measurements.

Key:
[1] = system: MCF7; assay: percentage of EdU-negative (G0-arrested) nuclei per well, 72 h; higher = more G0 arrest; settings: reference: sequence is the full UniProt precursor, the tested protein was the secreted form or ectodomain
[2] = system: hTERT-HMEC; assay: as above; settings: reference: sequence is the full UniProt precursor, the tested protein was the secreted form or ectodomain
[3] = protein concentration 0.0166175 µM
[4] = protein concentration 0.166175 µM
[5] = protein concentration 0.03125 µM
[6] = protein concentration 0.3125 µM
[7] = protein concentration 0.0225 µM
[8] = protein concentration 0.0165714 µM
[9] = protein concentration 0.165714 µM
[10] = protein concentration 0.0257143 µM
[11] = protein concentration 0.257143 µM
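Also: secreted proteins added to cultured cells, EdU pulse at the end, nuclei found by Hoechst imaging, EdU status from nuclear versus surrounding ring intensity ratio, PBS as neutral control.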

Chain of Q8WXD2 (chain, as listed by the source): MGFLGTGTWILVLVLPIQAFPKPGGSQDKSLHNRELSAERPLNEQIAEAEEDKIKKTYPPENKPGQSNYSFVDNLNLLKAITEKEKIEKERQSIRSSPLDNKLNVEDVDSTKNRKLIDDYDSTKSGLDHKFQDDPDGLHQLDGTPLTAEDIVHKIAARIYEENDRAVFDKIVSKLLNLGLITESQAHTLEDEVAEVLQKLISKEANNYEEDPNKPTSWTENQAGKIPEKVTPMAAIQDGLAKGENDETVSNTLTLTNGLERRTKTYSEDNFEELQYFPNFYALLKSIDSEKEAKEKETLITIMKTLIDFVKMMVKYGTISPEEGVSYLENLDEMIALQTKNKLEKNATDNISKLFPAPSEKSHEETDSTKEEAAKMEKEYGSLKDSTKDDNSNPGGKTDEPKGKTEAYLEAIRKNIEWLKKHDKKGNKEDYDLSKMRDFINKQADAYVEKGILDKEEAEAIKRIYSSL

MERAAPSRRVPLPLLLLGGLALLAAGVDADVLLEACCADGHRMATHQKDCSLPYATESKECRMVQEQCCHSQLEELHCATGISLANEQDRCATPHGDNASLEATFVKRCCHCCLLGRAAQAQGQSCEYSLMVGYQCGQVFQACCVKSQETGDLDVGGLQETDKIIEVEEEQEDPYLNDRCRGGGPCKQQCRDTGDEVVCSCFVGYQLLSDGVSCEDVNECITGSHSCRLGESCINTVGSFRCQRDSSCGTGYELTEDNSCKDIDECESGIHNCLPDFICQNTLGSFRCRPKLQCKSGFIQDALGNCIDINECLSISAPCPIGHTCINTEGSYTCQKNVPNCGRGYHLNEEGTRCVDVDECAPPAEPCGKGHRCVNSPGSFRCECKTGYYFDGISRMCVDVNECQRYPGRLCGHKCENTLGSYLCSCSVGFRLSVDGRSCEDINECSSSPCSQECANVYGSYQCYCRRGYQLSDVDGVTCEDIDECALPTGGHICSYRCINIPGSFQCSCPSSGYRLAPNGRNCQDIDECVTGIHNCSINETCFNIQGGFRCLAFECPENYRRSAATLQQEKTDTVRCIKSCRPNDVTCVFDPVHTISHTVISLPTFREFTRPEEIIFLRAITPPHPASQANIIFDITEGNLRDSFDIIKRYMDGMTVGVVRQVRPIVGPFHAVLKLEMNYVVGGVVSHRNVVNVHIFVSEYWF
percentage of EdU-negative [1, 3]: 27.1 ± 0.61% | percentage of EdU-negative [1, 4]: 26.7 ± 1.6% | percentage of EdU-negative [2, 3]: 3.95 ± 0.058% | percentage of EdU-negative [2, 4]: 5.63 ± 0.19%

MGSSSFLVLMVSLVLVTLVAVEGVKEGIEKAGVCPADNVRCFKSDPPQCHTDQDCLGERKCCYLHCGFKCVIPVKELEEGGNKDEDVSRPYPEPGWEAKCPGSSSTRCPQK [Q8WWY7]
percentage of EdU-negative [1, 5]: 26.5 ± 3.1% | percentage of EdU-negative [1, 6]: 24 ± 2.8% | percentage of EdU-negative [2, 5]: 5.3 ± 0.5% | percentage of EdU-negative [2, 6]: 5.28 ± 0.67%

MKALLALPLLLLLSTPPCAPQVSGIRGDALERFCLQQPLDCDDIYAQGYQSDGVYLIYPSGPSVPVPVFCDMTTEGGKWTVFQKRFNGSVSFFRGWNDYKLGFGRADGEYWLGLQNMHLLTLKQKYELRVDLEDFENNTAYAKYADFSISPNAVSAEEDGYTLFVAGFEDGGAGDSLSYHSGQKFSTFDRDQDLFVQNCAALSSGAFWFRSCHFANLNGFYLGGSHLSYANGINWAQWKGFYYSLKRTEMKIRRA
percentage of EdU-negative [1, 5]: 22.9 ± 0.61% | percentage of EdU-negative [1, 6]: 26.2 ± 3.4% | percentage of EdU-negative [2, 5]: 4.11 ± 0.33% | percentage of EdU-negative [2, 6]: 4.91 ± 0.91%

MVFLPLKWSLATMSFLLSSLLALLTVSTPSWCQSTEASPKRSDGTPFPWNKIRLPEYVIPVHYDLLIHANLTTLTFWGTTKVEITASQPTSTIILHSHHLQISRATLRKGAGERLSEEPLQVLEHPRQEQIALLAPEPLLVGLPYTVVIHYAGNLSETFHGFYKSTYRTKEGELRILASTQFEPTAARMAFPCFDEPAFKASFSIKIRREPRHLAISNMPLVKSVTVAEGLIEDHFDVTVKMSTYLVAFIISDFESVSKITKSGVKVSVYAVPDKINQADYALDAAVTLLEFYEDYFSIPYPLPKQDLAAIPDFQSGAMENWGLTTYRESALLFDAEKSSASSKLGITMTVAHELAHQWFGNLVTMEWWNDLWLNEGFAKFMEFVSVSVTHPELKVGDYFFGKCFDAMEVDALNSSHPVSTPVENPAQIREMFDDVSYDKGACILNMLREYLSADAFKSGIVQYLQKHSYKNTKNEDLWDSMASICPTDGVKGMDGFCSRSQHSSSSSHWHQEGVDVKTMMNTWTLQKGFPLITITVRGRNVHMKQEHYMKGSDGAPDTGYLWHVPLTFITSKSDMVHRFLLKTKTDVLILPEEVEWIKFNVGMNGYYIVHYEDDGWDSLTGLLKGTHTAVSSNDRASLINNAFQLVSIGKLSIEKALDLSLYLKHETEIMPVFQGLNELIPMYKLMEKRDMNEVETQFKAFLIRLLRDLIDKQTWTDEGSVSERMLRSQLLLLACVHNYQPCVQRAEGYFRKWKESNGNLSLPVDVTLAVFAVGAQSTEGWDFLYSKYQFSLSSTEKSQIEFALCRTQNKEKLQWLLDESFKGDKIKTQEFPQILTLIGRNPVGYPLAWQFLRKNWNKLVQKFELGSSSIAHMVMGTTNQFSTRTRLEEVKGFFSSLKENGSQLRCVQQTIETIEENIGWMDKNFDKIRVWLQSEKLERM [Q9NZ08]
percentage of EdU-negative [1, 7]: 28.5 ± 2.6% | percentage of EdU-negative ([1]; protein concentration 0.225 µM): 25.9 ± 1.9% | percentage of EdU-negative [2, 7]: 5.43 ± 0.72% | percentage of EdU-negative ([2]; protein concentration 0.225 µM): 9.42 ± 1.9%

MKLHYVAVLTLAILMFLTWLPESLSCNKALCASDVSKCLIQELCQCRPGEGNCSCCKECMLCLGALWDECCDCVGMCNPRNYSDTPPTSKSTVEELHEPIPSLFRALTEGDTQLNWNIVSFPVAEELSHHENLVSFLETVNQPHHQNVSVPSNNVHAPYSSDKEHMCTVVYFDDCMSIHQCKISCESMGASKYRWFHNACCECIGPECIDYGSKTVKCMNCMF [Q9GZX9]
percentage of EdU-negative [1, 7]: 23.8 ± 4.6% | percentage of EdU-negative ([1]; protein concentration 0.225 µM): 28.8 ± 0.54% | percentage of EdU-negative [2, 7]: 4.64 ± 0.11% | percentage of EdU-negative ([2]; protein concentration 0.225 µM): 12.59 ± 0.086%

MRPLAGGLLKVVFVVFASLCAWYSGYLLAELIPDAPLSSAAYSIRSIGERPVLKAPVPKRQKCDHWTPCPSDTYAYRLLSGGGRSKYAKICFEDNLLMGEQLGNVARGINIAIVNYVTGNVTATRCFDMYEGDNSGPMTKFIQSAAPKSLLFMVTYDDGSTRLNNDAKNAIEALGSKEIRNMKFRSSWVFIAAKGLELPSEIQREKINHSDAKNNRYSGWPAEIQIEGCIPKERS
percentage of EdU-negative [1, 7]: 27.2 ± 0.94% | percentage of EdU-negative ([1]; protein concentration 0.225 µM): 24.7 ± 0.92% | percentage of EdU-negative [2, 7]: 4.35 ± 0.59% | percentage of EdU-negative ([2]; protein concentration 0.225 µM): 6.31 ± 1.2%

MFHQIWAALLYFYGIILNSIYQCPEHSQLTTLGVDGKEFPEVHLGQWYFIAGAAPTKEELATFDPVDNIVFNMAAGSAPMQLHLRATIRMKDGLCVPRKWIYHLTEGSTDLRTEGRPDMKTELFSSSCPGGIMLNETGQGYQRFLLYNRSPHPPEKCVEEFKSLTSCLDSKAFLLTPRNQEACELSNN
percentage of EdU-negative [1, 7]: 23.57 ± 0.056% | percentage of EdU-negative ([1]; protein concentration 0.225 µM): 30.2 ± 0.5% | percentage of EdU-negative [2, 7]: 4.08 ± 0.27% | percentage of EdU-negative ([2]; protein concentration 0.225 µM): 9.42 ± 0.84%

MTPALTALLCLGLSLGPRTRVQAGPFPKPTLWAEPGSVISWGSPVTIWCQGSLEAQEYQLDKEGSPEPLDRNNPLEPKNKARFSIPSMTQHHAGRYRCHYYSSAGWSEPSDPLELVMTGFYNKPTLSALPSPVVASGGNMTLRCGSQKGYHHFVLMKEGEHQLPRTLDSQQLHSGGFQALFPVGPVTPSHRWRFTCYYYYTNTPRVWSHPSDPLEILPSGVSRKPSLLTLQGPVLAPGQSLTLQCGSDVGYDRFVLYKEGERDFLQRPGQQPQAGLSQANFTLGPVSPSHGGQYRCYGAHNLSSEWSAPSDPLNILMAGQIYDTVSLSAQPGPTVASGENVTLLCQSRGYFDTFLLTKEGAAHPPLRLRSMYGAHKYQAEFPMSPVTSAHAGTYRCYGSYSSNPHLLSFPSEPLELMVSGHSGGSSLPPTGPPSTPASHAKDYTVENLIRMGMAGLVLVFLGILLFEAQHSQRNPQDAAGR [Q6PI73]
percentage of EdU-negative [1, 7]: 22.6 ± 0.32% | percentage of EdU-negative ([1]; protein concentration 0.225 µM): 24.9 ± 4.2% | percentage of EdU-negative [2, 7]: 5.69 ± 0.33% | percentage of EdU-negative ([2]; protein concentration 0.225 µM): 5.12 ± 0.84%

Q8WXD2
percentage of EdU-negative [1, 8]: 25.6 ± 3.6% | percentage of EdU-negative [1, 9]: 29.2 ± 1.7% | percentage of EdU-negative [2, 8]: 5.59 ± 0.58% | percentage of EdU-negative [2, 9]: 6.19 ± 0.24%

MKLSGMFLLLSLALFCFLTGVFSQGGQVDCGEFQDPKVYCTRESNPHCGSDGQTYGNKCAFCKAIVKSGGKISLKHPGKC [Q6UWN8]
percentage of EdU-negative [1, 10]: 24.2 ± 1.2% | percentage of EdU-negative [1, 11]: 27.2 ± 3% | percentage of EdU-negative [2, 10]: 4.92 ± 0.69% | percentage of EdU-negative [2, 11]: 5.15 ± 0.39%

MARPLCTLLLLMATLAGALASSSKEENRIIPGGIYDADLNDEWVQRALHFAISEYNKATEDEYYRRPLQVLRAREQTFGGVNYFFDVEVGRTICTKSQPNLDTCAFHEQPELQKKQLCSFEIYEVPWEDRMSLVNSRCQEA
percentage of EdU-negative [1, 7]: 25.1 ± 1.4% | percentage of EdU-negative ([1]; protein concentration 0.225 µM): 24.36 ± 0.2% | percentage of EdU-negative [2, 7]: 5.17 ± 0.14% | percentage of EdU-negative ([2]; protein concentration 0.225 µM): 6.38 ± 0.58%

MFCPLKLILLPVLLDYSLGLNDLNVSPPELTVHVGDSALMGCVFQSTEDKCIFKIDWTLSPGEHAKDEYVLYYYSNLSVPIGRFQNRVHLMGDILCNDGSLLLQDVQEADQGTYICEIRLKGESQVFKKAVVLHVLPEEPKELMVHVGGLIQMGCVFQSTEVKHVTKVEWIFSGRRAKEEIVFRYYHKLRMSVEYSQSWGHFQNRVNLVGDIFRNDGSIMLQGVRESDGGNYTCSIHLGNLVFKKTIVLHVSPEEPRTLVTPAALRPLVLGGNQLVIIVGIVCATILLLPVLILIVKKTCGNKSSVNSTVLVKNTKKTNPEIKEKPCHFERCEGEKHIYSPIIVREVIEEEEPSEKSEATYMTMHPVWPSLRSDRNNSLEKKSGGGMPKTQQAF [Q86YT9]
percentage of EdU-negative [1, 7]: 23.21 ± 0.041% | percentage of EdU-negative ([1]; protein concentration 0.225 µM): 24.8 ± 2.1% | percentage of EdU-negative [2, 7]: 4.64 ± 0.38% | percentage of EdU-negative ([2]; protein concentration 0.225 µM): 5.35 ± 1.2%

MYTAIPQSGSPFPGSVQDPGLHVWRVEKLKPVPVAQENQGVFFSGDSYLVLHNGPEEVSHLHLWIGQQSSRDEQGACAVLAVHLNTLLGERPVQHREVQGNESDLFMSYFPRGLKYQEGGVESAFHKTSTGAPAAIKKLYQVKGKKNIRATERALNWDSFNTGDCFILDLGQNIFAWCGGKSNILERNKARDLALAIRDSERQGKAQVEIVTDGEEPAEMIQVLGPKPALKEGNPEEDLTADKANAQAAALYKVSDATGQMNLTKVADSSPFALELLISDDCFVLDNGLCGKIYIWKGRKANEKERQAALQVAEGFISRMQYAPNTQVEILPQGHESPIFKQFFKDWK
percentage of EdU-negative [1, 7]: 24.6 ± 2.7% | percentage of EdU-negative ([1]; protein concentration 0.225 µM): 26.02 ± 0.14% | percentage of EdU-negative [2, 7]: 5.3073 ± 0.0047% | percentage of EdU-negative ([2]; protein concentration 0.225 µM): 6.38 ± 0.68%
